Measurements reported in patent US5445935.

Molecular target: tryptophan repressor (TrpR) (UniProt P0A881 P0A881:2-108)
Assay: FP; dimer-DNA Kd from linked monomer-dimer/DNA binding model (preferred fit; dimer-monomer Kd 3.5 nM); 0.2 nM DNA, 10 mM K phosphate, 0.1 mM EDTA, 10% glycerol, pH

B1: fluorescein-labeled 25-mer trp operator duplex (dsDNA)
DNA 1: CTTGCACTAGTTAACTAGTCAGCAA
DNA 2: TTGCTGACTAGTTAACTAGTGCAAG
- Kd: 0.23 nM
